Substrate: O=P(O)(O)O
Assay: cells, lysate or membranes
Conditions: intact delta-Pst1 cells grown 24 h in Pi-limiting BG-11; room temperature; transport Km

B1: Pst2 (Synechocystis sp. PCC 6803 substr. Kazusa) (protein)
chain: GTLNGAGASFPAPLYQRYFAEYKKATGNTVNYNSVGSGAGIRQFIGETVDFGATDAVPTSAQRQQMKRGVVMVPTAGGAVAVVYNLPGKKVQLSRIALGKIFTGELKTWNQVDSKLPNTPIRVVVRADGSGTTDIFTSHLSAISSTFRSKIGASQDPNWGFQVLKGPKNDGVAATVKQTPGAIGYVQDTFARRNEGPNLQTAKVQNKAGQYVEPSLAEANKAISGAKFDANFVAEISDPASGYPIVGLTWLLVYQNNKNANVAKDVKALVRWILTTGQNHNTQLEYTKIPPAVAQRVIAAVNKIK
Km: 0.13 µM

From paper PMC3199254
